Test results: patent US20240270846A1 (published 2024)

Molecular target: T1, CD3 epsilon homodimer protein (UniProt P07766 23-126)
T1 construct: also called CD3 (CD3 epsilon)
Assay: SPR (Biacore T200), CD3e homodimer on CM4 chip, antibody as analyte; KD ratio vs unaltered GLS3000;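 further: CD3 epsilon homodimer amine-coupled to the sensor surface, antibodies injected as analyte at 25 °C with HBS-EP+ running buffer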
Method: An appropriate amount of CD3 epsilon homodimer protein was immobilized onto Sensor chip CM4 (GE Healthcare Japan Corp.) by the amine coupling method. Then, the antibody having an appropriate concentration was injected thereto as an analyte and allowed to interact with the CD3 epsilon homodimer protein on the sensor chip. Then, the sensor chip was regenerated by the injection of 10 mmol/L glycine-HCl (pH 1.5). The assay was conducted at 25 degrees C., and HBS-EP+(GE Healthcare Japan Corp.) was used as a running buffer. […] Each parameter was calculated using Biacore T200 Evaluation Software (GE Healthcare Japan Corp.).
Specifically, when the amount of the GLS3000-containing antibody bound was defined as X and the amount of the L chain one-amino acid altered form bound was defined as Y, a value of Z (ratio of amounts bound)=Y/X was used.

T1 sequence (P07766 23-126): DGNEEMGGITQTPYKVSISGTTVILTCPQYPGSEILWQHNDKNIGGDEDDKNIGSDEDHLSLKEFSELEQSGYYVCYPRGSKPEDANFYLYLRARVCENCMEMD

| KD ratio to GLS3000 [ratio] | Binder |
| --- | --- |
| 4.1 | CE115HA000/GLS3000 H34K one-arm antibody (antibody, human IgG1, kappa, L234A L235A, N297A, name in Kabat numbering, one-arm IgG1) heavy: QVQLVESGGGVVQPGRSLRLSCAASGFTFSNAWMHWVRQAPGKGLEWVAQIKAKSNNYATYYAESVKGRFTISRDDSKNSLYLQMNSLKTEDTAVYYCRYVHYGAYYGVDAWGQGTTVTVSSASTKGPSVFPLAPSSKSTSGGTAALGCLVKDYFPEPVTVSWNSGALTSGVHTFPAVLQSSGLYSLSSVVTVPSSSLGTQTYICNVNHKPSNTKVDKKVEPKSCDKTHTCPPCPAPEAAGGPSVFLFPPKPKDTLMISRTPEVTCVVVDVSHEDPEVKFNWYVDGVEVHNAKTKPREEQYASTYRVVSVLTVLHQDWLNGKEYKCKVSNKALPAPIEKTISKAKGQPREPQVYTLPPSRCELTKNQVSLSCAVKGFYPSDIAVEWESNGQPENNYKTTPPVLDSDGSFFLVSKLTVDKSRWQQGNVFSCSVMHEALHNHYTQKSLSLSPDYKDDDDK EPKSSDKTHTCPPCPAPELLGGPSVFLFPPKPKDTLMISRTPEVTCVVVDVSHEDPEVKFNWYVDGVEVHNAKTKPREEQYNSTYRVVSVLTVLHQDWLNGKEYKCKVSNKALPAPIEKTISKAKGQPREPQVCTLPPSRDELTKNQVSLWCLVKGFYPSDIAVEWESNGQPENNYKTTPPVLDSDGSFFLYSKLTVDKSRWQQGNVFSCSVMHEALHNRYTQKSLSLSP light: DIVMTQSPLSLPVTPGEPASISCRSSQSLVHSNRNTYLKWYQQKPGQAPRLLIYKVSNRFSGVPDRFSGSGSGTDFTLKISRVEAEDVGVYYCGQGTQVPYTFGQGTKLEIKRTVAAPSVFIFPPSDEQLKSGTASVVCLLNNFYPREAKVQWKVDNALQSGNSQESVTEQDSKDSTYSLSSTLTLSKADYEKHKVYACEVTHQGLSSPVTKSFNRGEC |
| 1.03 | CE115HA000/GLS3000 H34L one-arm antibody (antibody, human IgG1, kappa, L234A L235A, N297A, name in Kabat numbering, one-arm IgG1) heavy: QVQLVESGGGVVQPGRSLRLSCAASGFTFSNAWMHWVRQAPGKGLEWVAQIKAKSNNYATYYAESVKGRFTISRDDSKNSLYLQMNSLKTEDTAVYYCRYVHYGAYYGVDAWGQGTTVTVSSASTKGPSVFPLAPSSKSTSGGTAALGCLVKDYFPEPVTVSWNSGALTSGVHTFPAVLQSSGLYSLSSVVTVPSSSLGTQTYICNVNHKPSNTKVDKKVEPKSCDKTHTCPPCPAPEAAGGPSVFLFPPKPKDTLMISRTPEVTCVVVDVSHEDPEVKFNWYVDGVEVHNAKTKPREEQYASTYRVVSVLTVLHQDWLNGKEYKCKVSNKALPAPIEKTISKAKGQPREPQVYTLPPSRCELTKNQVSLSCAVKGFYPSDIAVEWESNGQPENNYKTTPPVLDSDGSFFLVSKLTVDKSRWQQGNVFSCSVMHEALHNHYTQKSLSLSPDYKDDDDK EPKSSDKTHTCPPCPAPELLGGPSVFLFPPKPKDTLMISRTPEVTCVVVDVSHEDPEVKFNWYVDGVEVHNAKTKPREEQYNSTYRVVSVLTVLHQDWLNGKEYKCKVSNKALPAPIEKTISKAKGQPREPQVCTLPPSRDELTKNQVSLWCLVKGFYPSDIAVEWESNGQPENNYKTTPPVLDSDGSFFLYSKLTVDKSRWQQGNVFSCSVMHEALHNRYTQKSLSLSP light: DIVMTQSPLSLPVTPGEPASISCRSSQSLVHSNRNTYLLWYQQKPGQAPRLLIYKVSNRFSGVPDRFSGSGSGTDFTLKISRVEAEDVGVYYCGQGTQVPYTFGQGTKLEIKRTVAAPSVFIFPPSDEQLKSGTASVVCLLNNFYPREAKVQWKVDNALQSGNSQESVTEQDSKDSTYSLSSTLTLSKADYEKHKVYACEVTHQGLSSPVTKSFNRGEC |
